Results reported in patent US20180142226.
Where a chain is given by its changes, count along the chain named. In names and notes the source's numbering stands.

T1: PFPQPQLPY peptide
T1 chain: PFPQPQLPY

T2: PFPQPQQPF peptide
T2 chain: PFPQPQQPF

B1: Kuma010 (protein)
chain: AAPTAYTPLDVAQAYQFPEGLDGQGQCIAIIELGGGYDEASLAQYFASLGVPAPQVVSVSVDGASNQPTGDPKGPDGEVELDIEVAGALAPGAKFAVYFAPDTTAGFLDAITTAIHDPTLKPSVVSISWSGPEDSWTSAAIAAMNRAFLDAAALGVTVLAAAGDSGSTGGEQDGLYHVHFPAASPYVLACGGTRLVASGGRIAQETVWNDGPDGGATGGGVSRIFPLPAWQEHANVPPSANPGASSGRGVPDLAGNADPATGYEVVIDGEATVIGGTSAVAPLFAALVARINQKLGKAVGYLNPTLYQLPADVFHDITEGNNDIANRAQIYQAGPGWDPCTGLGSPIGVRLLQALLPSASQPQGSTENLYFQSGALEHHHHHH
B2: Kuma032 (protein)
chain: AAPTAYTPLDVAQAYQFPEGLDGQGQCIAIIELGGGYDEASLAQYFASLGVPAPQVVSVSVDGASNQPTGDPEGPDGEVTLDIEVAGALAPGAKFAVYFAPDTTAGFLDAITTAIHDPTLKPSVVSISWSGPEDSWTSAAIAAMNRAFLDAAALGVTVLAAAGDQGSTSGEQDGLYHVHFPAASPYVLACGGTRLVASGGRIAQETVWNQGPDGGATGGGVSRIFPLPAWQEHANVPPSANPGASSGRGVPDLAGNADPQTGYEVVIDGEATVTGGTSAVAPLFAALVARINQKLGKAVGYLNPTLYQLPADVFHDITEGNNDIANRAQIYQAGPGWDPCTGLGSPIGVRLLQALLPSASQPQP
B3: Kuma042 (protein)
chain: B2 chain with E73K, S130A, Q165S, S169G, H179F
B4: Kuma070 (protein)
chain: AAPTAYTPLDVAQAYQFPEGLDGQGQCIAIIELGGGYDEASLAQYFASLGVPAPQVVSVSVDGASNQPTGDPKGPDGEVTLDIEVAGALAPGAKFAVYFAPDTTAGFLDAITTAIHDPTLKPSVVSISWAMPEDSWTSAAIAAMNRAFLDAAALGVTVLAAAGDSGSTGGEQDGLYHVFFPAASPYVLACGGTRLVASGGRIAQETVWNQGPDGGATGGGVSRIFPLPAWQEHANVPPSANPGASSGRGVPDLAGNADPQTGYEVVIDGEATVTGGTSAVAPLFAALVARINQKLGKAVGYLNPTLYQLPADVFHDITEGNNDIANRAQIYQAGPGWDPCTGLGSPIGVRLLQALLPSASQPQPGSTENLYFQSGALEHHHHHH
B5: Kuma062 (protein)
chain: B2 chain with G131M
B6: Kuma011-E269T (protein)
chain: AAPTAYTPLDVAQAYQFPEGLDGQGQCIAIIELGGGYDEASLAQYFASLGVPAPQVVSVSVDGASNQPTGDPKGPDGEVTLDIEVAGALAPGAKFAVYFAPDTTAGFLDAITTAIHDPTLKPSVVSISWSGPEDSWTSAAIAAMNRAFLDAAALGVTVLAAAGDSGSTGGEQDGLYHVHFPAASPYVLACGGTRLVASGGRIAQETVWNDGPDGGATGGGVSRIFPLPAWQEHANVPPSANPGASSGRGVPDLAGNADPATGYEVVIDGEATVIGGTSAVAPLFAALVARINQKLGKAVGYLNPTLYQLPADVFHDITEGNNDIANRAQIYQAGPGWDPCTGLGSPIGVRLLQALLPSASQPQ
B7: Kuma011-S354E (protein)
chain: B6 chain with T80E, S165E
B8: Kuma011-L270V (protein)
chain: B6 chain with T80E, L81V
B9: Kuma011-A449E (protein)
chain: B6 chain with T80E, A260E
B10: Kuma011-I463L (protein)
chain: B6 chain with T80E, I274L
B11: Kuma011-G358S (protein)
chain: B6 chain with T80E, G169S
B12: Kuma011-T461R (protein)
chain: B6 chain with T80E, T272R
B13: Kuma011-D402Q (protein)
chain: B6 chain with T80E, D213Q
B14: Kuma011-G358Q (protein)
chain: B6 chain with T80E, G169Q
B15: Kuma011-D402S (protein)
chain: B6 chain with T80E, D213S
B16: Kuma011-S354R (protein)
chain: B6 chain with T80E, S165R
B17: Kuma011-L270A (protein)
chain: B6 chain with T80E, L81A
B18: Kuma011-H368Q (protein)
chain: B6 chain with T80E, H179Q
B19: Kuma011-I463M (protein)
chain: B6 chain with T80E, I274M
B20: Kuma011-S354Q (protein)
chain: B6 chain with T80E, S165Q
B21: Kuma011-G358N (protein)
chain: B6 chain with T80E, G169N
B22: Kuma011-D399Q (protein)
chain: B6 chain with T80E, D210Q
B23: Kuma010/011 S319A (protein)
chain: B6 chain with T80E, S130A
B24: Kuma011-G358T (protein)
chain: B6 chain with T80E, G169T
B25: Kuma011-S354Y (protein)
chain: B6 chain with T80E, S165Y
B26: Kuma011-I463A (protein)
chain: B6 chain with T80E, I274A
B27: Kuma011-S354A (protein)
chain: B6 chain with T80E, S165A
B28: Kuma011-T406S (protein)
chain: B6 chain with T80E, T217S
B29: Kuma011-L270T (protein)
chain: B6 chain with T80E, L81T
B30: Kuma011-H368F (protein)
chain: B6 chain with T80E, H179F
B31: Kuma010/011 A449N (protein)
chain: B6 chain with T80E, A260N
B32: Kuma031 (protein)
chain: B2 chain
B33: Kuma041 (protein)
chain: B2 chain with E73K, S130A, Q165S, S169G, H179F

Each protein was assayed against DQ2.5-glia-α1a.
Protein B1 has a Kcat of 3.7 s⁻¹, a Km of 4.6 mM and a Vmax of 3.7e-07 M/s. It also gave a kcat/Km of 819 M⁻¹ s⁻¹.
B2 was tested, and the “concentration of peptide breakdown product PFPQPQ over time” value was “Kuma032 and Kuma042 demonstrate comparable activity as Kuma030 and Kuma040”.
With B3 the “concentration of peptide breakdown product PFPQPQ over time” value was “Kuma042 even shows a slight increase in activity against this substrate compared to Kuma040”.
For B4, the “Activity Improvement over Background (Kuma040)” value was 2-3x (PQL).

Each protein was assayed against DQ2.5-glia-ω1.
For B1, the Kcat was 1.2 s⁻¹, the Km was 16.4 mM and the Vmax was 1.22e-07 M/s. The kcat/Km was 74 M⁻¹ s⁻¹.
In the case of B5, the “detection of full-length peptide and of the PFPQPQ breakdown product over time” value is reported as “Kuma062 demonstrates a higher level of enzymatic activity than Kuma030 or Kuma040”.
B4 was tested, and the “Activity Improvement over Background (Kuma040)” value was 2-4x (PQQ).

Molecular target: T1, PFPQPQLPY peptide
For B6, the “% Improvement on PFPQPQLPY (SEQ ID NO: 67)” value was 263%.
B7 was tested, and the “% Improvement on PFPQPQLPY (SEQ ID NO: 67)” value was 124%.
B8 was tested, and the “% Improvement on PFPQPQLPY (SEQ ID NO: 67)” value was 474%.
With B9 the “% Improvement on PFPQPQLPY (SEQ ID NO: 67)” value was 149%.
In the case of B10, the “% Improvement on PFPQPQLPY (SEQ ID NO: 67)” value is reported as 124%.
With B11 the “% Improvement on PFPQPQLPY (SEQ ID NO: 67)” value was 331%.
B12 was tested, and the “% Improvement on PFPQPQLPY (SEQ ID NO: 67)” value was 120%.
B13 was tested, and the “% Improvement on PFPQPQLPY (SEQ ID NO: 67)” value was 164%.
For B14, the “% Improvement on PFPQPQLPY (SEQ ID NO: 67)” value was 147%.
In the case of B15, the “% Improvement on PFPQPQLPY (SEQ ID NO: 67)” value is reported as 94%.
For B16, the “% Improvement on PFPQPQLPY (SEQ ID NO: 67)” value was 109%.
In the case of B17, the “% Improvement on PFPQPQLPY (SEQ ID NO: 67)” value is reported as 203%.
For B18, the “% Improvement on PFPQPQLPY (SEQ ID NO: 67)” value was 199%.
B19 was tested, and the “% Improvement on PFPQPQLPY (SEQ ID NO: 67)” value was 123%.
B20 was tested, and the “% Improvement on PFPQPQLPY (SEQ ID NO: 67)” value was 145%.
In the case of B21, the “% Improvement on PFPQPQLPY (SEQ ID NO: 67)” value is reported as 120%.
With B22 the “% Improvement on PFPQPQLPY (SEQ ID NO: 67)” value was 149%.
For B23, the “% Improvement on PFPQPQLPY (SEQ ID NO: 67)” value was 154%.
B24 was tested, and the “% Improvement on PFPQPQLPY (SEQ ID NO: 67)” value was 283%.
With B25 the “% Improvement on PFPQPQLPY (SEQ ID NO: 67)” value was 46%.
In the case of B26, the “% Improvement on PFPQPQLPY (SEQ ID NO: 67)” value is reported as 51%.
For B27, the “% Improvement on PFPQPQLPY (SEQ ID NO: 67)” value was 152%.
With B28 the “% Improvement on PFPQPQLPY (SEQ ID NO: 67)” value was 84%.
In the case of B29, the “% Improvement on PFPQPQLPY (SEQ ID NO: 67)” value is reported as 307%.
B30 was tested, and the “% Improvement on PFPQPQLPY (SEQ ID NO: 67)” value was 334%.
B31 was tested, and the “% Improvement on PFPQPQLPY (SEQ ID NO: 67)” value was 119%.

Molecular target: T2, PFPQPQQPF peptide
B6 was tested, and the “% Improvement on PFPQPQQPF (SEQ ID NO: 68)” value was 191%.
For B7, the “% Improvement on PFPQPQQPF (SEQ ID NO: 68)” value was 120%.
In the case of B8, the “% Improvement on PFPQPQQPF (SEQ ID NO: 68)” value is reported as 61%.
With B9 the “% Improvement on PFPQPQQPF (SEQ ID NO: 68)” value was 208%.
With B10 the “% Improvement on PFPQPQQPF (SEQ ID NO: 68)” value was 22%.
With B11 the “% Improvement on PFPQPQQPF (SEQ ID NO: 68)” value was 224%.
For B12, the “% Improvement on PFPQPQQPF (SEQ ID NO: 68)” value was 86%.
B13 was tested, and the “% Improvement on PFPQPQQPF (SEQ ID NO: 68)” value was 111%.
In the case of B14, the “% Improvement on PFPQPQQPF (SEQ ID NO: 68)” value is reported as 149%.
For B15, the “% Improvement on PFPQPQQPF (SEQ ID NO: 68)” value was 108%.
With B16 the “% Improvement on PFPQPQQPF (SEQ ID NO: 68)” value was 82%.
In the case of B17, the “% Improvement on PFPQPQQPF (SEQ ID NO: 68)” value is reported as 92%.
With B18 the “% Improvement on PFPQPQQPF (SEQ ID NO: 68)” value was 195%.
In the case of B19, the “% Improvement on PFPQPQQPF (SEQ ID NO: 68)” value is reported as 53%.
B20 was tested, and the “% Improvement on PFPQPQQPF (SEQ ID NO: 68)” value was 141%.
B21 was tested, and the “% Improvement on PFPQPQQPF (SEQ ID NO: 68)” value was 99%.
For B22, the “% Improvement on PFPQPQQPF (SEQ ID NO: 68)” value was 208%.
B23 was tested, and the “% Improvement on PFPQPQQPF (SEQ ID NO: 68)” value was 184%.
B24 was tested, and the “% Improvement on PFPQPQQPF (SEQ ID NO: 68)” value was 128%.
With B25 the “% Improvement on PFPQPQQPF (SEQ ID NO: 68)” value was 105%.
B26 was tested, and the “% Improvement on PFPQPQQPF (SEQ ID NO: 68)” value was 234%.
In the case of B27, the “% Improvement on PFPQPQQPF (SEQ ID NO: 68)” value is reported as 140%.
In the case of B28, the “% Improvement on PFPQPQQPF (SEQ ID NO: 68)” value is reported as 101%.
In the case of B29, the “% Improvement on PFPQPQQPF (SEQ ID NO: 68)” value is reported as 29%.
In the case of B30, the “% Improvement on PFPQPQQPF (SEQ ID NO: 68)” value is reported as 104%.
With B31 the “% Improvement on PFPQPQQPF (SEQ ID NO: 68)” value was 118%.

The proteins below were run against peptides containing PQL.
In the case of B32, the “Activity Improvement over Background (Kuma030)” value is reported as “No change (PQL);”.
With B2 the “Activity Improvement over Background (Kuma031)” value was “No change (PQL);”.
B3 was tested, and the “Activity Improvement over Background (Kuma041)” value was 1.2-1.5x (PQL).
With B33 the “Activity Improvement over Background (Kuma040)” value was 1.0-1.2x (PQL).
